Assay results published in patent US20040018515.

Mek 6
initial rate of fluorescence increase (535 nm) of the ADP NASM FRET assay, reporting ADP yield from ATP hydrolysis (p386): substantially enhanced fluorescence was observed (Table 17, shaded cells; 150-300 RFU/min)

Mek1
initial rate of fluorescence increase (535 nm) of the ADP NASM FRET assay, reporting ADP yield from ATP hydrolysis (Erk2): substantially enhanced fluorescence was observed (Table 17, shaded cells; 150-300 RFU/min)
